Reference: the nanobody polyreactivity screen of Harvey et al. (2022)

Experiment: yeast display, Sf9 membrane polyspecificity reagent, FACS + sequencing; frameworks hold sequencing errors
How it was run: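 Sorting gates, low and high (top ~1%), were placed on anti-HA fluorescence to track expression and on streptavidin fluorescence to track reagent binding. A clone's polyreactivity label is taken from the gate it came out of. The reagent was 10% biotinylated, detergent-solubilized Sf9 membrane, applied for 1 hour at 4 °C to galactose-induced yeast display cells.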

Sequence | polyreactivity (PSR sort gate)
QVPLVESGGGLVQAGGSLRLSCAASGGIFRLYAMGWYRLAPGKEREVVASLSGDGDSTYYADSVQGRFTISRDNAKNTVYLQMNSLKPEDTAVYYCARQPYYFLSRPPYFRKYYYWGQGTQVTVSS | high polyreactivity
QVQLVETGGGLVQAGGRLRLSCAASGITFYFNTMGWYRPAPGKERELVASISGGSSTYYADSVKGRFPISRDNAKNTVYLQMISLKREDTAVYYCNAQGSLFRGWFDYDYWGQGTQVTVSS | low polyreactivity
QVQLVESGGGLVQAGGSLRLSCAASGSTFFIYAMGRYRQAPGEERELVAAITSGGTYADSVKGRFTISRDNAKNTVYLQMNSLKPVDTAVYYCNAGNNVVVDYDYWGQGTQVTVSS | low polyreactivity
QVQLVESAGGLVQAGGTLSLSCAASGSTFYNYAMGWYRQAPGTETELVAAISSGGSTNYADSVKGRFTISRDNAKNTVYLQMNSLKPEDTAVYYCARRHRVYPSRIGHDYWGQGTQVTVSS | low polyreactivity
QVQLVESGGGIVQAGRSLRLSCPASGLIFGPYTMGWYRQAPGKERELVAAISRSGGITYYADSVKGRFTISRDNATNTVYLQMNSLKPEDTAVYYCAARLVRESEPLGYWGQGTQVTLSS | high polyreactivity
QVQLVESGGGLVQAGGSLRLSCAACGSIFYWNAMVWYRQAPGKERELVAAINSGDSTNYADSVKGRFTISRDNAKNTVYFQMNSLKPEDTAVYYCAASIYAALNGGPGYDYWGLGTQVTVSS | low polyreactivity
QVQHVESGGGLVQARGSLRLSCAPSGFTFETNAMGWYRQAPGKEREFDAAISWTTTSTYFADSVKGRVTISRDNAKNTVYLQMNSLKPEDTAVYSCAVGLIREFGWDYDYWGQGTQVTVSS | low polyreactivity
QVQLVESGGGLVQAGGSLRLSCAASGFIFTYNAMGWYRQAPGKETEFVASISRSGGRTYYADSVKGRFTISRDNAKNTVYLQMNSLKPEDTAVYYCAARNAYVYGMDYWGHGTQVTVSS | low polyreactivity
QVQLVESGGGLVQAGGSLRLSCAASGSIYPYYAKGWNRPAPRKERELFAAIDSGGSTNYADSLKGRFSITRDNAKNRVYLQLNSLIPEDTAVFYCADDVYWFAYVWSKYVFWGQGTHVTVSS | low polyreactivity
QVQLVESGGGLVQAGGSLRLSCAASGGIFTNNAMGWYRQAPGKERELVAAITGSGASTYYADSVKGRFTISRDNAKNTVYLQMNSLKPEDTAVYYCAALSKYYAPLSRYDYWGQGTQVTVSS | high polyreactivity
QVQLVESGGGLVQGGGSLSLSCAASGSIFLYYAMGWYRQAPGKERELVAGIRRGGRTNYSDSVKGRFTISRDNAKNNVYLQMNSLKPEDTAVDYCAKGGYCGQGTQVTVSS | high polyreactivity
QVQLVESGGGLVQAGGSLRLSCAASGSNFGPNAMGWYRQAPGKERELVAVISFRGGNTYYADSVKGRFTISRDNAKNTVYLQMNSLKPEDTAVYYCAARGYRYGYGYWGQGTQVTVSS | high polyreactivity
QVQLVESGGGLVQAGGSLRLSCAASGSILGYYAMGWYRQAPGKERELVAAISSGGSTNYADSVKGRFTISRDNAKNTVYLQMNSLKPEDTAVYYCAAGVTWPYRYVWYDYWGQGTQVTVSS | low polyreactivity
QVQLVESGGGLVQAGGSLRLSCAASGATFSYYAMGWYRQAPGKERELVAAISYSGGSTYYADSVKGRFTISRDNAKNTVYLQMNSLKPEDTAVYYCNARDPYYGDPSSLPDTRSRSDYWGQGTQVTVSS | low polyreactivity
QVQLVESGGGLVQAGGSLRLSCAASGSTFVGYAMGWYRHAPGKERELVAAISSSGGRTNYADSVKGRFTISRDNAKNTVYLQMNSLKPEDTAVYYCAAKAYRSPVYYWGQGTQVTVSS | high polyreactivity
QVQLVESGGGLVQAGGSLRLSCAASGSIFDGYAMGWYRQAPGKERELVASISSGGSTNYADSVKGRFTISRDNAKNTVYLQMNSLKPEDTAVYYCAAEWVWYKWEFEYWGQGTQVTVSS | high polyreactivity
QVQLVESGGGLVQAGGSLRLRCAASGSIFNFYAMGGYRQAPGKERELVATINWSGGRTYYADSVKGRFTISRDNATNTVYLQMNSLNTEDTAVYYCAASRYFRGDYWGQGTQGTVSS | high polyreactivity
QVQLVESGGGLVQAGGSLRLSCAASGRTFYKYAMGWYRQAPGKERELVAAISRRGGSTYYADSVKGRFTISRDNAKNTVYLQMNSLKPEDTAVYDCAADPDTKGFYVYRLVRVRYGYWGQGTQVTVSS | high polyreactivity
QVQLVESGRGLVQAGGTLRLSCAASGSTFNKYAMGWYRQAPGKERELVAAIRSNGVRTYYADSVKVRLTISRDNAKNTVYLQMNSLNPEDTAVYYCNKRYTYRYDYWGQGTQVTVSS | high polyreactivity
QDQLVDSGGGLVQAGGSLRLSCAASGTFFMGWYRQAPGKERELVAGISIYDGSTYYADSVKGRFTISRDNAKNTVYLQMNRLKPEDTAVYYCAAEFYPTTGFDYWGQGTQVTVSS | low polyreactivity
QVQLVESGGGLVQAGGSLRLSCAASGSISSKNAMGWYRQAPGKEREFVAVISGTGGSTYYADSVKGRLTISRDNAKNTVYLQMNSLKPEDTAVYYCAAAASSIVSYGYTWTYGYWGQGTQVTVSS | low polyreactivity
QVQLVESGGGLVQAGGSLRLSCAASGLTIWRYAMGWYRQAPGKEREFVATISQNGGRTYYADSVKGRFTISRDNAKNTVYLQMNSLKPEVNAVYYCAADDWRWGYDYWGQGTQVTVSS | high polyreactivity

Sequence | polyreactivity (PSR sort gate)
QVQLVESGGGLVQAGGSLRLSCAASGYTFSDNAMGWYRQAPGKEWELVAAISTGGSTNYADSVKGRFTISRDNAKNTVYLQMNSLKPEDTAVYYCATDAWSFGYNYVPLHYDYWGQGTQVTVSS | low polyreactivity
QVQLVESGGGLVQAGGSLRLSCAASGRTFGVYAMGWYRQAPGKDSELVEAINNGGSTNYADSVKGRFTISRDNAKNTVYLQINSLKPEDTAVYNCNAVVGYRHWPYYRGEYDYWGQGTQVTVSS | low polyreactivity
QVQLVESGGGLVQAGGSLRLSCAASGRTFGGNAIGWYRQAPGKERELVAAISSGARTNYADSVKGRFTISRDNAKNTVYLQMNSLKPEDNAVYYCAAGYPYSYRDYYYWVQGTQVTVSS | high polyreactivity
QVQLVESGGGLVQAGGSLRLSCAASGITFKGNAMGWYRQAPGKERELVAVITWSGGSTYYADSVKGRFTISRDNAKNTVYLQMNSLKPEDTAVYYCAKPWIYGDSQYDYWGQGTQVTVSS | low polyreactivity
QVQHVESGGGLVQAGGTLRLSCAASGSIFFWYGMGRYRQAPGKERELVAAITSGGISYYADSVKGRFTISRDNAKNTVYFQMNSLKPEDTAVYYCATRTYTYWGGSYPHYYWGQGSQVTVSS | high polyreactivity
QVQLVESGGRLVQAGGSLRLSCAASGRTFRSYAMGWYRPAPGKEWELVAAIRTSDGITYYADSVKGRFTISRDNAKNTVDLQMNSLQPEDTAVYYCAAENWYKYDYWGQGTQVTVSS | low polyreactivity
QDQLVESGGGLVQAGGSLRLSCAASVSIFASYAMGRYRPAPGKERELVAAISSRGSRTYYADSVKGRFTISRDNAKNTVYLQMNRLKPQDTAVYYCAAYSPDYYNAEFGYWGQGTHVTVSS | high polyreactivity
RVQLQESGGGLVQAGGSLRLSCAASGTIFIRGDMGWYRQAPGKEREFVATIDTGSNTYYADSEKGRFTISRDNAKNAVYLQMNCQQPGDTAVYYCVVDYQLSGRLRYWGQGTQVTLSS | low polyreactivity
QVQVVDSGGGLVQAGGSLRLSCAASGLTIVKNVMGWYRQAPGKERELVAAISRRGGSTYYADSVKGRFTISRDNAKNTVYLQMNSLKPEDTAVYYCNAVLNQLSYIYPAVGYWGQGTQVTVSS | high polyreactivity
QVQLVESGGGLLQAGGSLRLSCAASGIIFGRYTMGWYRKAPGKETELVAAITSSGITYYADSVKGRFTISRDNAKNTVYLQMNSLKPEDTAVYYCYADYSIPGYYWPYDYWGQGTQVTVSS | low polyreactivity
QVQLVESGGGLVQAGGSLRLSCAASGRTFYKYAMGWYRQAPGKEREFVADISSRGGSTYYADSVKGRFTISRDNAKNTVYLQMNSLKPEDTAVYYCAARPRPRSANGMYYWGQGTQVTVSS | high polyreactivity
QVQLVESGGGLVQAGGSLRLSCAASGRIYPAYAMGWSRQAPGKERELVASIRRGGITYADSVKGRFTISRDNAKNTVYLQMNSLKPEDTAVYYCNADYRGWGYHMDYWGQGTQVTVSS | low polyreactivity
QVQLVESGGGLVQAGGSLRLSCAASGRIFAYYAMGWYRQAPGKERELVAAISRGGGSTSYADSVKGRFTISRDNAKNTFYLQMNSLKPEDTAVYYCAKDRGYRYLGDYWGQGTQVTVSS | low polyreactivity
QVQLVESGGGLVQAGGSLRLSCAASGRTFYLYAMGWYRQAPGKEREFVAAISWSTGSTYYADSVKGRFTISRDNAKNTVYLQMNSLKPEDTAVYYCAASTFTGYPKMYYWGQGTQVTVSS | high polyreactivity
QVQLVASGGGLVQAGGSLRLSCAASGRIFSSNAMGWSRQAPGKEWELVAAITKSGGGTYYADSVKGRFTISRDNAKNTVYLQLNSLKPEDTAVYYCAKGQYRSSGYDYWGQGTQVTVSS | low polyreactivity
QVQLVESGGGLVQAGGSLRLSCAASGSTFYSNAMGWDRQAPGKERELVASISWSSGSTYYADSVKGRFTISRDNAKNTVYLQMNSLKPEDTAVYYCATDAGGPYRFGYWGQGTQVTVSS | low polyreactivity
QVQLVESGGGLVQSGGSLRLSCAACGGTFYRYAMGWYRQAPGKERELVAAITSGSSTYYADSVKGRFTISRDNAKNTVYLQMNSLTPEDTAVYYCAAARYSRLSRTRPGKYGYWGQGTQVTVST | low polyreactivity
QDQLVESGGGLVQAGGSLRLSCAASGSTFAGYAMGWYRQAPGKERELVATITYSGGSTYYADSVKGRFTISRDNAKNTVYLQMNSLKPEDTAVYYCAKKASYWWGYEYWGQGTQVTVSS | low polyreactivity
QVQLVESGGGLVQAGGSLRLSCAASGFTFIGYAMGWNRQAPGKERELVADITYSGSSTYYADSVKGRFTISRDNAKNTVYFQMNSLKPEDTAVYYCAAEAYYYWFDVVYWGQGSQVTVSS | low polyreactivity
QDQLVESGGGLVQAGGSLRLSCAASGRIFCSYAMGWYRQAPGKERELVAAISRRGGGTYYADSVKGRFTISRENAKNTVYLQMNSLKPEDTAFYYCAKDWYGRYYYWGQGTQVTVSS | high polyreactivity
QVQLVESGGGLVQAGGSLRLSCAASGSTFYFYDMGWYRQAPGKERELVATIDDGGGSTYYADSVKGRFTISRDNAKNTVYLQMNSLKPEDTAVYYCNADDSEYLIYDYWGQGTQVTVSS | low polyreactivity
